This note sets out measurements from article PMC2878198 (Journal of the American Chemical Society, 2009).

One data set addresses LovF (Aspergillus terreus, UniProt Q9Y7D5). As to the kind of experiment: FTMS of ACP-bound diketide. It is filed as biochemical. The following applies: with SAM and NADPH; covalent loading on ACP.
Substrate in data set [1]: CC[C@H](C)C(=O)SCCNC(=O)CCNC(=O)[C@H](O)C(C)(C)COP(=O)(O)OP(=O)(O)OC[C@H]1O[C@@H](n2cnc3c(N)ncnc32)[C@H](O)[C@@H]1OP(=O)(O)O
The data set is described as follows: initial velocity of lovastatin formation by HPLC. Type of data set: biochemical, Aspergillus terreus. The following applies: acyl donor; acyl acceptor monacolin J.

Substrate in data set [2]: CC[C@H](C)C(=O)SCCNC(C)=O
The data set is described as follows: initial velocity of lovastatin formation by HPLC. It is filed as biochemical, Aspergillus terreus. The conditions noted are these: acyl donor; acyl acceptor monacolin J.

Sequence of LovF (Q9Y7D5 whole entry): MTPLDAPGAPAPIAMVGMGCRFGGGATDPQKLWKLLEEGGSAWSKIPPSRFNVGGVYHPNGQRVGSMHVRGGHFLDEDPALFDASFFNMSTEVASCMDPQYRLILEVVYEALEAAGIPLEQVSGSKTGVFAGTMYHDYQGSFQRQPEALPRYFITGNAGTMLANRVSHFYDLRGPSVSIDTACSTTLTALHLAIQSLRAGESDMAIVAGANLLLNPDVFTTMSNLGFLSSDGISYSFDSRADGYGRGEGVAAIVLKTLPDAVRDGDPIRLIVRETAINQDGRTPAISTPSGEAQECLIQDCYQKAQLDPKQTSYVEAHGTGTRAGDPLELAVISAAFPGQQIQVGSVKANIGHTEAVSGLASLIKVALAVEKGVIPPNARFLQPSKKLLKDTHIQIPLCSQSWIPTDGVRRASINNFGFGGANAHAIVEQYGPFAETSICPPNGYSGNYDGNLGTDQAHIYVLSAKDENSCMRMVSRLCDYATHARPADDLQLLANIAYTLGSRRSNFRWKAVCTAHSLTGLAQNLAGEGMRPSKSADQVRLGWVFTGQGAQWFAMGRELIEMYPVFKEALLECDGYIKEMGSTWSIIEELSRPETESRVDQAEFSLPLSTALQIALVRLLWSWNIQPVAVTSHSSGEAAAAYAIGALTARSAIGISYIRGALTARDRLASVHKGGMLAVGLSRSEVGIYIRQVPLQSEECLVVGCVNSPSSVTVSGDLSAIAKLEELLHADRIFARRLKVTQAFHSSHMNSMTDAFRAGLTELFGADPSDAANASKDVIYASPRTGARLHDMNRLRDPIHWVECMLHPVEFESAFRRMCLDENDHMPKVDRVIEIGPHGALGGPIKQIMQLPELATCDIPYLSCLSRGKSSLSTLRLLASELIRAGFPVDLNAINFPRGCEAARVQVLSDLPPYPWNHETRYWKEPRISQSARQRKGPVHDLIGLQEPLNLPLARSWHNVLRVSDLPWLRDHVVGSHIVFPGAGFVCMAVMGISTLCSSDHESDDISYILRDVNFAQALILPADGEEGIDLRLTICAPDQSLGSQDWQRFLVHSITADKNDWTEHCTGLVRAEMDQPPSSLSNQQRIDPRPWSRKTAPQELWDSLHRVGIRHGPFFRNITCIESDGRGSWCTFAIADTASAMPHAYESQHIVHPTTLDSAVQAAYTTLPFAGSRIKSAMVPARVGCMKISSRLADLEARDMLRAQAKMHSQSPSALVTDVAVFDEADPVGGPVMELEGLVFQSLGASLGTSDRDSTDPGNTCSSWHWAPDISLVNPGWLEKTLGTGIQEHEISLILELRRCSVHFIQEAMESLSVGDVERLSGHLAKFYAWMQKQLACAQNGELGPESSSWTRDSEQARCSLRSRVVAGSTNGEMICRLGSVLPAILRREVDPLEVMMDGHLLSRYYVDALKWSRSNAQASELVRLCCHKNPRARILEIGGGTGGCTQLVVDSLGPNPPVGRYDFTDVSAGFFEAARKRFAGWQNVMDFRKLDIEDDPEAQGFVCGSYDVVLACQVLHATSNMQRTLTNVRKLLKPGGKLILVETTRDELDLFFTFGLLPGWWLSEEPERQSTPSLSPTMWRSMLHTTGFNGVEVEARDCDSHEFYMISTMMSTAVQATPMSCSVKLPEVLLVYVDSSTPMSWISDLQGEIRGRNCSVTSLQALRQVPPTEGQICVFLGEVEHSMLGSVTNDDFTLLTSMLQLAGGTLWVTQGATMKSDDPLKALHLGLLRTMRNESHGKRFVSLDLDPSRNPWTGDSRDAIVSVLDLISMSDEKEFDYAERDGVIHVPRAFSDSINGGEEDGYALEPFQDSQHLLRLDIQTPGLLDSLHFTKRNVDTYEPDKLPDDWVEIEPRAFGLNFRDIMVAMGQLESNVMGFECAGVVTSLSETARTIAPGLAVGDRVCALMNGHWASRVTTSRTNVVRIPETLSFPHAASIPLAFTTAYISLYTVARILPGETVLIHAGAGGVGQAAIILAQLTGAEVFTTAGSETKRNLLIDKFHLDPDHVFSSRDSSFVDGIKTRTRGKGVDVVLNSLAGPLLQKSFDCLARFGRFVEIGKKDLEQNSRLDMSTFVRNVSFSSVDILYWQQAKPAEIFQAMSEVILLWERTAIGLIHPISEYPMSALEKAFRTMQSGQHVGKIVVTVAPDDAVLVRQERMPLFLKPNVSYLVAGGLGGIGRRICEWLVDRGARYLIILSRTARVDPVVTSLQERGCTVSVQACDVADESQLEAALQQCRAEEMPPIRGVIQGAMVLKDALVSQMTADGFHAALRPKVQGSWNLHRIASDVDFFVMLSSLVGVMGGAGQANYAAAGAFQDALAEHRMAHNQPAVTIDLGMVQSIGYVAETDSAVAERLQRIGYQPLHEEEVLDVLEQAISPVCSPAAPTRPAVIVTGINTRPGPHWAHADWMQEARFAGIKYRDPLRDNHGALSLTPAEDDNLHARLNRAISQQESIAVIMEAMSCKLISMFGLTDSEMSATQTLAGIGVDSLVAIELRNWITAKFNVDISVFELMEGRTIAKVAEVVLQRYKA

Regarding `CC(C)(COP(=O)(O)OP(=O)(O)OC[C@H]1O[C@@H](n2cnc3c(N)ncnc32)[C@H](O)[C@@H]1OP(=O)(O)O)[C@@H](O)C(=O)NCCC(=O)NCCSC(=O)CC(=O)O` [malonyl-CoA], the “FTMS of ACP-bound diketide; LC-MS of product released by LovD” value at LovF is “we incubated LovF with malonyl-CoA, SAM and NADPH”.

B1: LovD (Aspergillus terreus) (protein)
chain: MGSIIDAAAAADPVVLMETAFRKAVKSRQIPGAVIMARDCSGNLNYTRCFGARTVRRDECNQLPPLQVDTPCRLASATKLLTTIMALQCMERGLVDLDETVDRLLPDLSAMPVLEGFDDAGNARLRERRGKITLRHLLTHTSGLSYVFLHPLLREYMAQGHLQSAEKFGIQSRLAPPAVNDPGAEWIYGANLDWAGKLVERATGLDLEQYLQENICAPLGITDMTFKLQQRPDMLARRADQTHRNSADGRLRYDDSVYFRADGEECFGGQGVFSGPGSYMKVLHSLLKRDGLLLQPQTVDLMFQPALEPRLEEQMNQHMDASPHINYGGPMPMVLRRSFGLGGIIALEDLDGENWRRKGSLTFGGGPNIVWQIDPKAGLCTLAFFQLEPWNDPVCRDLTRTFEHAIYAQYQQG
For the molecule B1, in data set [1], the Km – broadly, the substrate concentration at which the rate is half of its maximum – is reported as 2.5 ± 0.31 mM; the kcat (commonly the maximal rate divided by the concentration of active sites) was determined as 0.00283 ± 0.000167 s⁻¹; the kcat/Km (in general, the turnover number divided by the Michaelis constant) came out at 1.15 M⁻¹ s⁻¹. In data set [2], the Km was 9.2 ± 0.9 mM, the kcat was found to be 0.0004 ± 1.67e-05 s⁻¹ and the kcat/Km came out at 0.0267 M⁻¹ s⁻¹.
